The source of these data is PMC5835332.

This test has as its target actin from bovine muscle, monomerized (G-actin), labelled with NT-647 dye (bovine) (UniProt P68138). The experiment in a line: MST.

For orientation: Kd means the free concentration of one partner at which half of the binding sites on the other are occupied at equilibrium, for simple one-to-one binding. “F1_(P97-232), recombinant fragment of the P97 cilium adhesin (amino acids 106-758) (domain or fragment)” gave a Kd of 34.2 nM. In the case of “F3_(P97-232), recombinant fragment of the P97 cilium adhesin (amino acids 768-938) (domain or fragment)” it was 1790 nM.
